Target: RHA (DHX9/RNA helicase A) (UniProt Q08211 1-1270)
Assay: EMSA; 0.5 uM RNA, 0-4 uM RHA; preferred over TAR-PolyA; EMSA: binding buffer A, 10 mM Tris-HCl pH 7.5, 140 mM KCl, 10 mM KCl (so in the source); probably NaCl), 1 mM MgCl2, 37 C 10 min, 1.5% agarose; ITC: binding buffer B
Details: protein: recombinant; tags: N-terminal His6 and Mocr tags; label: site-specific 2H labels in some NMR samples; three-way junction

Sequence of RHA (DHX9/RNA helicase A) (Q08211 whole entry): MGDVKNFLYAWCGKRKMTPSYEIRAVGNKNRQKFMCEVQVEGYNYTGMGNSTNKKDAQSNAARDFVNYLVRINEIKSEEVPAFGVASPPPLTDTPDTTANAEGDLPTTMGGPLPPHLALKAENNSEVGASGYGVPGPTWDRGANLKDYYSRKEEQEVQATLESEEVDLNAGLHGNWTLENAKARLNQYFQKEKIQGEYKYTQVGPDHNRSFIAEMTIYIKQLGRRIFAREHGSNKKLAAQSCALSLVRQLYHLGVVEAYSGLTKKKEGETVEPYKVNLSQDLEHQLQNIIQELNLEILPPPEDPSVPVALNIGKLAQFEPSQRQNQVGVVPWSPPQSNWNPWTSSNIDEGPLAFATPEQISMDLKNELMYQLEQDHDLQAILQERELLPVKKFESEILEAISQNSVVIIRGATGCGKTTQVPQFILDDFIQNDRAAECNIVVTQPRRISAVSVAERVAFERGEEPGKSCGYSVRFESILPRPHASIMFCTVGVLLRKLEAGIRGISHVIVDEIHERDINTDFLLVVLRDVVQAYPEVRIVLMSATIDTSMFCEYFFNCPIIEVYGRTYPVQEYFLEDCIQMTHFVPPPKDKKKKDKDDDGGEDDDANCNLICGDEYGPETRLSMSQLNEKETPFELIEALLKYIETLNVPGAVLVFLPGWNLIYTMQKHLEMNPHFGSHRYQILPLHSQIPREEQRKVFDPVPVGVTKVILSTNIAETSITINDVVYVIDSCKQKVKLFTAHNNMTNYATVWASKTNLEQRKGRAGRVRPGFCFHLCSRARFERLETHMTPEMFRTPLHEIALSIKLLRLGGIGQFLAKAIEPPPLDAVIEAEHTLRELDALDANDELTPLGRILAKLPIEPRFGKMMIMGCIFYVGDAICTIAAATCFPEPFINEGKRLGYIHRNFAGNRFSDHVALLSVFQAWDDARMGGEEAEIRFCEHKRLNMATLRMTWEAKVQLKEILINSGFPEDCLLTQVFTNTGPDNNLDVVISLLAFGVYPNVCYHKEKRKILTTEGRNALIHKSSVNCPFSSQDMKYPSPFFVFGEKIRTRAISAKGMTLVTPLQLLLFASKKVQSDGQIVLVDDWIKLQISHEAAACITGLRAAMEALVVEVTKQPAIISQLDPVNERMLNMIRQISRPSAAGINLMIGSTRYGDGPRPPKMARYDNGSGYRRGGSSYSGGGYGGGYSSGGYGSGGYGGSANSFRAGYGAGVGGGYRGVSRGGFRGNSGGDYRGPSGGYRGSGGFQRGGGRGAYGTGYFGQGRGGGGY

B1: PBS-segment (nt 125-223) (structured_RNA)
RNA: GGCUCUGGUAACUAGAGAUCCCUCAGACCCUUUUAGUCAGUGUGGAAAAUCUCUAGCAGUGGCGCCCGAACAGGGACUUGAAAGCGAAAGUAAAGCCAGAGCC
binding result: binds

From publication PMC8191761, “The three-way junction structure of the HIV-1 PBS-segment binds host enzyme important for viral infectivity”
